The values that follow come from EP1098979B1 (Boehringer Ingelheim International GmbH, dated 2007).

Assay [1] has as its target human fibroblast activation protein alpha (FAP) on the cell surface (human) (UniProt Q12884). The assay can be described thus: competition flow cytometry, HT-1080FAP clone 33 cells, unlabelled competitor at 3.16 µg/ml against 1 µg/ml biotinylated cF19; signal of bound biotinylated cF19. For orientation: Flow cytometry measures light scatter and fluorescence of single cells or particles in a stream.

For assay [2] the target is unchanged. The assay can be described thus: flow cytometry, HT-1080FAP clone 33 cells, antibody at 100.0 ng/ml, FITC anti-human IgG.
Assay [3] has the same target. In words: flow cytometry, HT-1080FAP clone 33 cells, antibody at 500.0 ng/ml, FITC anti-human IgG.
Assay [4] shares this target. In words: flow cytometry, HT-1080FAP clone 33 cells, biotinylated antibody at 5,000.0 ng/ml, streptavidin-FITC.
The target is the same in assay [5]. In words: flow cytometry, HT-1080FAP clone 33 cells, biotinylated antibody at 8.0 ng/ml, streptavidin-FITC.
Assay [6] has the same target. In words: flow cytometry, HT-1080FAP clone 33 cells, antibody at 20.0 ng/ml, FITC anti-human IgG.
Assay [7] has the same target. In words: flow cytometry, HT-1080FAP clone 33 cells, biotinylated antibody at 40.0 ng/ml, streptavidin-FITC.
For assay [8] the target is unchanged. In words: competition flow cytometry, HT-1080FAP clone 33 cells, unlabelled competitor at 31.66 µg/ml against 1 µg/ml biotinylated cF19; signal of bound biotinylated cF19.
Assay [9] shares this target. The assay can be described thus: competition flow cytometry, HT-1080FAP clone 33 cells, unlabelled competitor at 10.00 µg/ml against 1 µg/ml biotinylated cF19; signal of bound biotinylated cF19.
For assay [10] the target is unchanged. The assay can be described thus: flow cytometry, MF-SH cells with endogenous FAP, antibody at 4000 ng/ml.
Assay [11] has the same target. In words: flow cytometry, HT-1080FAP clone 33 cells, antibody at 4.0 ng/ml, FITC anti-human IgG.
For assay [12] the target is unchanged. In words: flow cytometry, HT-1080FAP clone 33 cells, biotinylated antibody at 1,000.0 ng/ml, streptavidin-FITC.
The target is the same in assay [13]. In words: flow cytometry, HT-1080FAP clone 33 cells, biotinylated antibody at 200.0 ng/ml, streptavidin-FITC.
Assay [14] shares this target. In words: competition flow cytometry, HT-1080FAP clone 33 cells, unlabelled competitor at 1.00 µg/ml against 1 µg/ml biotinylated cF19; signal of bound biotinylated cF19.
For assay [15] the target is unchanged. The assay can be described thus: flow cytometry, HT-1080FAP clone 33 cells, biotinylated antibody at 1.6 ng/ml, streptavidin-FITC.
The target is the same in assay [16]. In words: flow cytometry, HT-1080FAP clone 33 cells, antibody at 0.8 ng/ml, FITC anti-human IgG.
Assay [17] concerns the target T1, recombinant membrane-bound human FAP solubilised in detergent extracts of transfected cells (293FAP 1/2, … (human, UniProt Q12884 1-760)).
T1 construct: Same protein as m5, but isolated from the cells; also called recombinant human FAP
T1 sequence (looked up): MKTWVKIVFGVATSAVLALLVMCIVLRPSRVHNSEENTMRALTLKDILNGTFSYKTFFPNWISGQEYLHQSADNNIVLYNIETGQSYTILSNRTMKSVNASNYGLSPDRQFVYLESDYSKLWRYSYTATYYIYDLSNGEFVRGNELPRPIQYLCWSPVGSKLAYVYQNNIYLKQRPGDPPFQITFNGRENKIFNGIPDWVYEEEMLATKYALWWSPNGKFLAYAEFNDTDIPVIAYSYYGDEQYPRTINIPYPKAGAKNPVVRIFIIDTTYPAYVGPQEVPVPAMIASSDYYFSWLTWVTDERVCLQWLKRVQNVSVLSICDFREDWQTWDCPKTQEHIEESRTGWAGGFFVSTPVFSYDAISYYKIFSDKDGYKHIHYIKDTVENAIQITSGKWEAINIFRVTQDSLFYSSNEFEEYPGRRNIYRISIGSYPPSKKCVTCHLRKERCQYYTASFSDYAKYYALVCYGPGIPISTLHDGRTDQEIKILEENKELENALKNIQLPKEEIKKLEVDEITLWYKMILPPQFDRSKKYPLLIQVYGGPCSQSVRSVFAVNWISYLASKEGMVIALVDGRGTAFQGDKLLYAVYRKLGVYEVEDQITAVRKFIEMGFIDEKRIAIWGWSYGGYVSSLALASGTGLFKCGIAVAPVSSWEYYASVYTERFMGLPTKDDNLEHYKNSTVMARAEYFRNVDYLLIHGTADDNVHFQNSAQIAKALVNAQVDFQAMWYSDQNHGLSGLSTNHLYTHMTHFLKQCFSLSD
In words: sandwich ELISA, detergent extract of 293FAP 1/2 cells on cF19-coated plates, HRP-streptavidin. Background: In an ELISA, binding on a coated surface is turned into a signal by an enzyme label.

The target in assay [18] is human fibroblast activation protein alpha (FAP) on the cell surface (human) (UniProt Q12884). In words: flow cytometry, HT-1080FAP clone 33 cells, 1 µg/ml biotinylated cF19 without competitor (0.00 µg/ml).
For assay [19] the target is unchanged. In words: flow cytometry, MF-SH cells with endogenous FAP, antibody at 2000 ng/ml.
Assay [20] has the same target. The assay can be described thus: flow cytometry, MF-SH cells with endogenous FAP, antibody at 500 ng/ml.
Assay [21] has as its target T1, recombinant membrane-bound human FAP …. In words: sandwich ELISA, cF19 as capture antibody.
For assay [22], the target named is human fibroblast activation protein alpha (FAP) on the cell surface (human) (UniProt Q12884). The assay can be described thus: flow cytometry, MF-SH cells with endogenous FAP, antibody at 1000 ng/ml.

“hIgG1 (human immunoglobulin, IgG1 subclass), negative control (antibody)”: the Mean fluorescence concentration was found to be 11.3 in assay [1], 10.3 in assay [8], 9.8 in [9] and 9 in assay [14]. Besides, the Mean fluorescence intensity came to 0.12 in [2]; 0.12 in assay [3]; 0.2 in assay [4]; 0.2 in assay [5]; 0.12 in [6]; 0.2 in [7]. The Mean fluorescence intensity in assay [10] was determined as 0.6; in [11] it was 0.12; in [12], 0.2; in assay [13], 0.2; in assay [15], 0.3; in assay [16], 0.12.

B1: LAHC (reshaped human anti-human FAP monoclonal antibody: F19 human reshaped light chain variable region version A with heavy chain variable region version C, … (antibody, V domains shown)
VH: QVQLVQSGAEVKKPGASVKVSCKTSRYTFTEYTIHWVRQAPGQRLEWIGGINPNNGIPNYNQKFKGRVTITVDTSASTAYMELSSLRSEDTAVYYCARRRIAYGYDEGHAMDYWGQGTLVTVSS
VL: DIVMTQSPDSLAVSLGERATINCKSSQSLLYSRNQKNYLAWYQQKPGQPPKLLIFWASTRESGVPDRFSGSGFGTDFTLTISSLQAEDVAVYYCQQYFSYPLTFGQGTKVEIKR
notes: The name joins light version A (LA) and heavy version C (HC); also called biotinylated LAHC; BIBH 1
For B1, the binding result in [17] is on record as “binds”.

B2: chimeric F19 antibody (cF19), mouse F19 variable regions joined to human kappa and gamma-1 constant regions (antibody, human IgG1, kappa, V domains shown)
VH: VQLQQSGPELVKPGASVKMSCKTSRYTFTEYTIHWVRQSHGKSLEWIGGINPNNGIPNYNQKFKGRATLTVGKSSSTAYMELRSLTSEDSAVYFCARRRIAYGYDEGHAMDYWGQGTSVTVSS
VL: DIVMSQSPSSLAVSVGEKVTMSCKSSQSLLYSRNQKNYLAWFQQKPGQSPKLLIFWASTRESGVPDRFTGSGFGTDFNLTISSVQAEDLAVYDCQQYFSYPLTFGAGTKLELKR
notes: Biotinylated in some assays; also called biotinylated cF19
Consider B2, for which the Mean fluorescence concentration was 4.8 in assay [1]; 11.2 in [18]; 1.2 in assay [8]; 1.3 in [9]; 7.5 in [14]. Further, the Mean fluorescence intensity in assay [2] stood at 1.63; in assay [3] it was 6.65; in [4] it was 36.5; in assay [19], 3.3; in [5] it was 0.5; in assay [6], 0.43. In addition, the Mean fluorescence intensity in assay [7] stood at 1.3; in [10], 3.6; in assay [20], 1.8; in assay [11], 0.17; in assay [12], 18.1; in assay [13], 4.5. Also, the Mean fluorescence intensity in assay [15] turned out to be 0.3; in assay [22] it was 2.4; in [16], 0.14. Moreover, in [21], the binding result was “binds”.
